# Measured values reported in the nanobody polyreactivity screen of Harvey et al. (2022).
# Assay: yeast display, Sf9 membrane polyspecificity reagent, FACS + sequencing; frameworks hold sequencing errors
# Method in brief: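 In a synthetic yeast display library (Saccharomyces cerevisiae BJ5465), nanobody expression was induced with galactose for 36–48 hours. FACS gates were set low and high (top ~1%) using anti-HA fluorescence for expression and streptavidin fluorescence for binding of the Sf9 membrane reagent. Each polyreactivity label is drawn from the gate of origin.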
row,Sequence,polyreactivity (PSR sort gate)
1,QVQLVESGGGLVQAGGSLRLSCAASGSTFETYAMGWYRQAPGKERELVATISLSGGRTYYADSVKGRFTISRDNAKNTVYLQMNSLKPEDTAVYYCNADGYGNVGGGDSWGQGTQVTVSS,low polyreactivity
2,QVQLVESGGGLVQAGGSLRLSCAASGSTFEVYAMGWYRQAPGKERELVAAINSRGTSTYYADSVKGRFTISRDNAKNTVYLQMNSLKPEDTAVYYCNAVRDWGPSQVYDGMDYWGQGTQVTVSS,low polyreactivity
3,QVQLVESGGGLVQAGGSLRLSCAASGSTFEYNAMGWYRQAPGKERELVASSTNYADSVKGRFTISRDNAKNTVYFQMNSLKPEDTAVYYCAREQGVNRNNDYWGQGTQVTVSS,low polyreactivity
4,QVQLVESGGGLVQAGGSLRLSCAASGSTFEYNAMGWYRQAPGKERELVASSTNYADSVKGRFTISRDNAKNTVYLQMNSLKPEDTAVYYCAREQGVNRNHDYRGQGTQVTVSS,low polyreactivity
5,QVQLVESGGGLVQAGGSLRLSCAASGSTFEYYVMGWYRQAPGKERELVAAISGSGGGTYYADSVKGRFTISRDNEKNTVYLQMNSLKPEDTAVYYCAAVATQEKYDYWGQGTQVTVSS,low polyreactivity
6,QVQLVESGGGLVQAGGSLRLSCAASGSTFFDYAMGWYRQAPGKERELVAAISSGGSTKYADSVKGRFTISRDNAKNTVYLQMNSLKPEDTAVYYCAATRWNGRRGYGYWGQGTQVTVSS,high polyreactivity
7,QVQLVESGGGLVQAGGSLRLSCAASGSTFFGNAMGWYRQAPGKERELVAAITSGGSTNYADSVKGRFTISRDNAKNTVYFQMNSLKPEDTAVYYCAKPSRWGWTGFYAYDYWGQGTQVTVSS,low polyreactivity
8,QVQLVESGGGLVQAGGSLRLSCAASGSTFFGNAMGWYRQAPGKERELVAAITSGGSTNYADSVKGRFTISRDNAKNTVYLQMNSLKPEDTAVYYCAKPSRWGWTGFYAYDYWGQGTQVTVSS,low polyreactivity
9,QVQLVESGGGLVQAGGSLRLSCAASGSTFFGYAMGWYRQAPGKERELVATISSGDSTNYADSVKGRFTISRDNAKNTVYLQMNSLKPEDTAVYYCAAQGGDGVLALYYYWGQGTQVTVSS,low polyreactivity
10,QVQLVESGGGLVQAGGSLRLSCAASGSTFFGYVMGWDRQAPGKERELVAAIRSSGGSTYYADSVKGRFTISRDNAKNTVYLQINSLKPEDTAVYYCAASYRYDAYSHYDYWGQGTQVTVSS,low polyreactivity
11,QVQLVESGGGLVQAGGSLRLSCAASGSTFFHYARGWYRQAPGKERELVAAISGSGGSTYYADSVKGRFTISRDNAKNTVYLQMNSLKPEDTAVYYCNARVWHYTSRTTFDYWGQGTQVTVSS,low polyreactivity
12,QVQLVESGGGLVQAGGSLRLSCAASGSTFFKNAMGWYRQAPGKERELVAAISTGGGSTTYADSVKGRFTISRDNAKNTVYLQMNSLKPEDTAVYYCAAVTLSSTYGGHDYWGQGTQVTVSS,high polyreactivity
13,QVQLVESGGGLVQAGGSLRLSCAASGSTFFKYDMGWYRQAPGKDRELVAVITWSGGTTFYADSVKGRFTFSRDNAKNTVYLQMNSLKPEDTAVYYGAADYYGYRYDYWGQGTQVTVSS,low polyreactivity
14,QVQLVESGGGLVQAGGSLRLSCAASGSTFFLYDKGWYRQAPGKERELVAAITLSGGSTYYADSVKGRFTISRDNAKNTVYLQMNSLNPEDTAVYYCADKRHGSEVGRGRDYWGQGTQVTVSS,high polyreactivity
15,QVQLVESGGGLVQAGGSLRLSCAASGSTFFLYGMGWYRQAPGKERELVAAITWNGGSTYYADSVKGRFTISRDNAKNTVYLQMNSLKPEDTAVYYCAADYYGYFSTPYDYWGQGTQVTVSS,low polyreactivity
16,QVQLVESGGGLVQAGGSLRLSCAASGSTFFNYAMGLYRQAPGKERELVAAITSVGSTYYADSVKGRFTISRDNAKYTVYLQMNSLKPEDTAVYYCNAESYFWDFYDYDHWGQGTQVTVSS,low polyreactivity

row,Sequence,polyreactivity (PSR sort gate)
1,QVQLVESGGGLVQAGGSLRLSCAASGSTFFPNAMGWYRQAPGKERELIADISISGGSTRYADSVKGRFTISRDNEKNTVYLQMNSLKPEDTAVYYCAVRRSAFYARFGRNYWGQGTQVTVSS,low polyreactivity
2,QVQLVESGGGLVQAGGSLRLSCAASGSTFFPYAMGWYRQAPGKERELVADITYSGASTYYADSVKGRFTISRDNAKNTVYLQMNSLKPEDTAVYYCAALVWYGYYSLGQGTQVTVSS,low polyreactivity
3,QVQLVESGGGLVQAGGSLRLSCAASGSTFFPYAMGWYRQAPGKVRELVAAIRWSGGRTYYADSVKGRFTISRDNPKNTVFLQMNSLKPEDTAVYYCNGYSVYVRGEYWGQGTQVTVSS,high polyreactivity
4,QVQLVESGGGLVQAGGSLRLSCAASGSTFFQYAMGWYRQAPGKERELVAAITSGGSTNYADSVKGRFTISRDNAKNTVYLQMNSLKPEDTAVYYCAAESKSGAFDYWGQGTQVTVSS,low polyreactivity
5,QVQLVESGGGLVQAGGSLRLSCAASGSTFFRYAMGWYRQAPGKEREFVAAITSSGGNTYYADSVKGRFTISRDNAKNTVYLQMNSLKPEDTAVYYCAAVWYSPYVKYNYWGQGTQVTVSS,low polyreactivity
6,QVQLVESGGGLVQAGGSLRLSCAASGSTFFRYAMGWYRQAPGKERELVAAISASGGRTYYADSVKGRFTISRDNAKNTVYLQMNSLKPEDTAVYYCNRQYGPYQYYYWGQGTQVTVSS,high polyreactivity
7,QVQLVESGGGLVQAGGSLRLSCAASGSTFFRYAMGWYRQAPGKERELVAAISKSGASTYYADSVKGRFTISRDNAKNTVYLQMNSLNPEDTAVYYCNADVKKSSAREWQYGYDYWGQGTQVTVSS,low polyreactivity
8,QVQLVESGGGLVQAGGSLRLSCAASGSTFFRYAMGWYRQAPGKERELVAAISWSGGTTYYADSVKGRFTISRDNAKNTVYLQMNSLKPEDTAVYYCAVDGGRWGQGTQVTVSS,low polyreactivity
9,QVQLVESGGGLVQAGGSLRLSCAASGSTFFRYAMGWYRQAPGKERELVAAITSGGNTYYADSVKGRFTISRDNAKNTVYLQMNSLKPEDSAVYYCAADVYHWIHEYDYWGQGTQVTVSS,low polyreactivity
10,QVQLVESGGGLVQAGGSLRLSCAASGSTFFRYDMGWYRQAPGKERELVADINYNGGSTYYADSVKGRFTISRDNAKNTVYLQMNSLKPEDTAVYYCAAAYRVRGRTYDSWGQGTQVTVSS,high polyreactivity
11,QVQLVESGGGLVQAGGSLRLSCAASGSTFFSNAMGRYRQAPGKERELVAAISWSGGSTYYADSVKGRFTISRDNAKNTVYLKLNSLKPEDTAVYYCGADYYGYWYDFEGDHWGQGTQVTVSS,low polyreactivity
12,QVQLVESGGGLVQAGGSLRLSCAASGSTFFSYDMGWYRQAPGKERELVATISTSVGRTYYADSVKGRFTISRDNAKNTVYLLMNSLKPEDTAVYYCNSDSLGYLYNYYWPAYDHWGQGTQVTVSS,low polyreactivity
13,QVQLVESGGGLVQAGGSLRLSCAASGSTFFTYTMGWYRQAPGKERELVATITTSGGSTYYADSVKGRFTISRDNAKNTVYLQMNSLKPEDTAVYYCAADWDPGYYVQYGYDYWGQGTQVTVSS,low polyreactivity
14,QVQLVESGGGLVQAGGSLRLSCAASGSTFFVNAMGWYRQAPGKERELVAAISTSGGRTYYADSVKGRFTISRDNAKNTVYLQMNSLKPEDTAVYYCAAYLRSPKGYYYWGQGTQVTVSS,high polyreactivity
15,QVQLVESGGGLVQAGGSLRLSCAASGSTFFVYAMGWYRQPPGKERELVADINWSSGITYYADSVKGRFTISRDNAKNNVYLQMNSLKREDTAVYYCKKDERYVTWSYFPNRYNYWGQGTQVTVSS,low polyreactivity
16,QVQLVESGGGLVQAGGSLRLSCAASGSTFFYYAMGWYRQAPGKERELVAAISGNGGSTYYADSVKGRFTISRDNAKNTVYLQMNSLKPEDPAVYYCAAVSSWDEYYYWGQGTQVTVSS,high polyreactivity
